Assays:
[1] = biological target: 6x His-tagged metformin hydrolase α subunit of Aminobacter niigataensis MD1 (Aminobacter niigataensis MD1); assay: crystal structure; 6x His-AnMefH complex, 13.3 mg/ml; crystals from 20% PEG 3350, 100 mM Bis Tris Propane-HCl pH 6.5, 200 mM NaF, 18 °C; soaked with urea
[2] = biological target: T1, MefHα/DmgHβ (Aminobacter niigataensis, UniProt A0AAX7FLU4); assay: guanylurea production by LC-MS; format: biochemical; conditions: 2 mM substrate, Tris-HCl pH 8, 30 °C
T1 construct: gene N7E70_023840; subunit-swapped heteromer of full-length subunits from two strains, co-expressed in E. coli; with Dimethylguanidine hydrolase subunit beta
T1 sequence (A0AAX7FLU4 20-376): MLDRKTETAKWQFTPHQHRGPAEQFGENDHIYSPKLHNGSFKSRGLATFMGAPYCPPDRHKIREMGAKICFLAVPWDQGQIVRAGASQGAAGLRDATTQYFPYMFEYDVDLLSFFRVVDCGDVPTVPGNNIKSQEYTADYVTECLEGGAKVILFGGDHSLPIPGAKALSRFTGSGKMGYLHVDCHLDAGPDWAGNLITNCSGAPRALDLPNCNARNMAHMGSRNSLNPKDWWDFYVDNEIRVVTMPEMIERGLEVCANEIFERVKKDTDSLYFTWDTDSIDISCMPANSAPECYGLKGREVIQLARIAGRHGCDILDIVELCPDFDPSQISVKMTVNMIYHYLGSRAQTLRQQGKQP
T1 sequence (A0ABR6L539 1-348 partner): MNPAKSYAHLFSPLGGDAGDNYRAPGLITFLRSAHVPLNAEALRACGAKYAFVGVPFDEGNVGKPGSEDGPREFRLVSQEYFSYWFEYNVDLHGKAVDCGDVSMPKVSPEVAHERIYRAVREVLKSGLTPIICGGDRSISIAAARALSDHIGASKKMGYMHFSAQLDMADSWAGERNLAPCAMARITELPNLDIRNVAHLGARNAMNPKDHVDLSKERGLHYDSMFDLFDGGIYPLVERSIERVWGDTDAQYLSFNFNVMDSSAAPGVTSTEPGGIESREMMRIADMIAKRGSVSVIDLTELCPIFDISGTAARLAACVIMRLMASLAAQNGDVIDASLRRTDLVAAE

Compound | stoichiometry N (MefHβ per MefHα) [1] | guanylurea production by LC-MS [2]
metformin hydrolase β subunit of Aminobacter niigataensis MD1, untagged (natural protein) | 2 | 
CN(C)C(=N)NC(=N)N [metformin] |  | MefHα/DmgHβ preferentially hydrolyzed metformin
